Experimental data as given in patent US7393837B2, “Inhibition of PEX in the treatment of metabolic bone diseases” (McGill University, priority 1998, dated 2008).

Key:
recombinant human PEX = molecular target: T1, recombinant human PEX (Homo sapiens, UniProt P78562); assay: Membrane-bound endopeptidase assay, hydrolysis by PEX-expressing COS cell membranes (HPLC); type: biochemical; details: for hydrolysis of the peptide in the presence of PEX: 10 μg peptide, COS cell membranes expressing PEX, HPLC at 214 nm, FIG. 8
T1 construct: excising the full length PEX cDNA that was then inserted into pcDNA3 vector; expressed in transfected cells; host or cells: COS-7 cells, transient transfection with pPEX (pcDNA3); 100,000 x g membrane fraction
T1 sequence (P78562 1-749): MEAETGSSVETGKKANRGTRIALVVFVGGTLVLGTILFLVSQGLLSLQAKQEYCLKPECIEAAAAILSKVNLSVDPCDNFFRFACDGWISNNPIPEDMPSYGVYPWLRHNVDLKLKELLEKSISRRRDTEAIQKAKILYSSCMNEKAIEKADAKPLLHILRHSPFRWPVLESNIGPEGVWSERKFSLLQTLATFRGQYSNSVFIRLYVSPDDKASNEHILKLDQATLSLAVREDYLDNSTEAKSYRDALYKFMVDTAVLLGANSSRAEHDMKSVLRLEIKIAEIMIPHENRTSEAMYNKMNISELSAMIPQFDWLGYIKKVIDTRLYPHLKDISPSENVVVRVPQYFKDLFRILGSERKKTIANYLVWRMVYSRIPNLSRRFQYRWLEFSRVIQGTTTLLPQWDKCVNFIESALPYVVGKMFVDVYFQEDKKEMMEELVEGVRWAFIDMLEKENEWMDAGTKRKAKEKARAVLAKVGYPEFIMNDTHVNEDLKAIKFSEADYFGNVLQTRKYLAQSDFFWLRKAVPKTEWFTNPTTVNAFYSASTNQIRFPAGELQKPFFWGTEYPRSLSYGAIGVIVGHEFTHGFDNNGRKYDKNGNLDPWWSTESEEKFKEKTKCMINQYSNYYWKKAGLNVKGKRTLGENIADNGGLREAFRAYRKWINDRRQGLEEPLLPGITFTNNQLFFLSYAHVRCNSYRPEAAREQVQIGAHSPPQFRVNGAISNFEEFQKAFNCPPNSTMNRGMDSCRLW
Experimental: (§1) COS-7 cells transiently transfected with pcDNA3 vector alone, with vector containing human NEP cDNA (generous gift of P. Crine, Université de Montréal), or with pPEX plasmid, were washed and scraped in PBS. Following brief centrifugation, the cell pellets were resuspended in 50 mM Tris-HCl, pH 7.4 and disrupted by sonication. Homogenates were fractionated by sequential centrifugation at 1,000×g for 10 min and then at 100,000×g for 60 min. The final precipitate was washed with 50 mM Tris-HCl, pH 7.4, resuspended in the same buffer, and assayed for endopeptidase activity. The protein concentration in membrane fractions was determined by the method of Bradford with bovine serum albumin as standard.
[D-Ala^2,Leu^5] enkephalin (500 μM) was incubated with COS cell membrane preparations (˜60 μg of protein) in 100 mM Tris-HCl, pH 7.0, at 37° C. for 30 min (final volume 30 μl). The reaction was terminated by the addition of 100 μl 0.1% TFA (v/v). Production of Tyr-D-Ala-Gly was monitored using reversed-phase HPLC (Bondpak C-18 reverse phase column, Waters) with a U.V. detector set at 214 nm. A linear solvent gradient of 0% B to 40% B in 60 min was used with a flow rate of 1.5 ml/min (mobile phase A=0.1% TFA (v/v); mobile phase B=80% acetonitrile/0.1% TFA). Tyr-D-Ala-Gly was identified by co-chromatography with marker synthetic peptide. For assessing PEX endopeptidase activity, 10 μg of PTH [1-38] and PTH [1-34] peptides (Peninsula Laboratories; Belmont, Calif.) were added to the membrane preparations. For HPLC analysis of hydrolysis products, a linear solvent gradient of 0% to 50% solution B was used at a rate of 1.5 ml/min. MALDI-TOF mass spectrometry was performed on specific peptide fragments.

recombinant human NEP = molecular target: T2, recombinant human NEP (Homo sapiens, UniProt P08473); assay: Membrane-bound endopeptidase assay, hydrolysis by NEP-expressing COS cell membranes (HPLC); type: biochemical; details: 500 μM substrate, 37° C., 30 min; FIG. 7B
T2 construct: expressed in transfected cells; host or cells: COS-7 cells, transient transfection; 100,000 x g membrane fraction
Experimental: as §1
[D-Ala^2,Leu^5] enkephalin (500 μM) was incubated with COS cell membrane preparations (˜60 μg of protein) in 100 mM Tris-HCl, pH 7.0, at 37° C. for 30 min (final volume 30 μl). The reaction was terminated by the addition of 100 μl 0.1% TFA (v/v). Production of Tyr-D-Ala-Gly was monitored using reversed-phase HPLC (Bondpak C-18 reverse phase column, Waters) with a U.V. detector set at 214 nm. A linear solvent gradient of 0% B to 40% B in 60 min was used with a flow rate of 1.5 ml/min (mobile phase A=0.1% TFA (v/v); mobile phase B=80% acetonitrile/0.1% TFA). Tyr-D-Ala-Gly was identified by co-chromatography with marker synthetic peptide. […]

T2 sequence (P08473 whole entry): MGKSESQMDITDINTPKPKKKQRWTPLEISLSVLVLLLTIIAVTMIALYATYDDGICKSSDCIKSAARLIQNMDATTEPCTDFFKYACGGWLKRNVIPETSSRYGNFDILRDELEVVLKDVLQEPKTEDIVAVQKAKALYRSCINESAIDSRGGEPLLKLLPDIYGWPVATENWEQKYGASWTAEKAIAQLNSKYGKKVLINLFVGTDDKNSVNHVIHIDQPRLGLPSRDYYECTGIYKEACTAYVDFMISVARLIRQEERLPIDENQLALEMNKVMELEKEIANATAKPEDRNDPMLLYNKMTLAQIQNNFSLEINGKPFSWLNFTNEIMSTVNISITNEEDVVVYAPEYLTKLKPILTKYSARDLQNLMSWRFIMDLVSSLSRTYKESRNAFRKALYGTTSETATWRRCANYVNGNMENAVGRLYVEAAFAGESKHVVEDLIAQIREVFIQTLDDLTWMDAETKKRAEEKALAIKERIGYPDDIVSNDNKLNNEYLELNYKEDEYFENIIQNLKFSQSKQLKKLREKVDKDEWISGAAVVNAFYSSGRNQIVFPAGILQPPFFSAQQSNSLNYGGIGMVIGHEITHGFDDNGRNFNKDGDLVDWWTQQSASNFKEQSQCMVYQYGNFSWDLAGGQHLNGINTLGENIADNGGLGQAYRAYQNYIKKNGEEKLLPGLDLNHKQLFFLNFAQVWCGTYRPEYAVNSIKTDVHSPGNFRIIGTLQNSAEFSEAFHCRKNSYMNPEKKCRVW

| Substance | hydrolysis of the peptide in the presence of PEX (recombinant human PEX) | production of Tyr-D-Ala-Gly from the substrate, PEX membranes (recombinant human PEX; 500 μM substrate, 37° C., 30 min, FIG. 7C) | production of Tyr-D-Ala-Gly from the substrate, NEP membranes (recombinant human NEP) |
| --- | --- | --- | --- |
| PTH [1-38]: human parathyroid hormone peptide 1-38 (Peninsula Laboratories), used as PEX substrate (SVSEIQLMHNLGKHLNSMERVEWLRKKLQDVHNFVALG) | hydrolyzed |  |  |
| [D-Ala^2, Leu^5] enkephalin |  | evident only in NEP-expressing membrane preparations | evident only in NEP-expressing membrane preparations |
| PTH [1-34]: human parathyroid hormone peptide 1-34 (Peninsula Laboratories), used as PEX substrate | hydrolyzed |  |  |
